Some results are limits rather than exact numbers.

We go through 28 sequences from the domain aggregation screens of Martell et al. (2025).

The nature of this series: soluble fraction after stress (log2 fold change); higher = more stays soluble; pooled small domains, quantitative proteomics. The following applies: stress: pH 4. In a few lines:
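Aggregation propensity here comes from the fold change in the soluble amount of each small protein domain after acid stress, measured in pooled custom libraries by high-throughput quantitative proteomics. The acid stress was pH 4. On the log2 scale, higher values mean more of the domain stayed soluble.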
Take “HMDVLSPEEWIEFRTAYNNNRYISQYGSKGATIEDDYATRLAMIGGKESYYFLNDPRWTEPGYGNLK”: the “soluble fraction (log2)” value was -1.45.

As for “HMDVMNEIQQKAFDIYIQSASLKNDFTPISERALAKKLHDMGLKSSMSAIGRWKKKFGWVQSLQNKVTLA”, the “soluble fraction (log2)” value was -0.183.

For the sequence “HMDVNKDLLGETLEKAKSYKADDWRKASYEALQKAIVEAEAVYKDEEADQVAVDRKVAALNKAINNLEAKG”, the “soluble fraction (log2)” value was determined as 0.241.

For the sequence “HMDVNPETLSYYIERADISLDELRTSVKGIDLFLTGEKQPTFNQISNIAKKLNIPTGLLLINKPIEI”, the “soluble fraction (log2)” value is -1.37.

On to “HMDVNSRIRQFLKKMKITVQTFESSIGKTNGYIAHTKSPTAGVLAEIAKVYPDLNLDWLITGEGEMLKN”, for which the “soluble fraction (log2)” value is -0.0635.

As for “HMDVPTSSITEVKKSPMDVFAQARKAETGVYIFNREKIAGVMLTKEQYEALVEELNTLRDTL”, the “soluble fraction (log2)” value was -1.24.

Consider “HMDVQEILGALSPDEKAAIGQLTSGEKHIDQIIAATRLPAARITSALTLLQIKGYVRALPGKRFSLTEKQ”, for which the “soluble fraction (log2)” value was at least 0.43.

For the sequence “HMDVQPTTTKTMFYTVQQGETLFSISRKFGISVEEITKKNPLASSGLTVGMELLLPEKKEINSTIQS”, the “soluble fraction (log2)” value was -0.0195.

In the case of “HMDVSEITTIKWIIKETKLGINEKILIYVNSKNFTVETLMEGFEIMSKYLVENVSSDKIVYIKN”, the “soluble fraction (log2)” value amounted to 0.22.

As to “HMDVTDRLARRLQGLRSAQGLSLDALAARSGVSRSNISLIERGQSSPTATVLDKLSAALGVTLAALFEEP”, the “soluble fraction (log2)” value was determined as 0.00664.

For “HMDWVAYGAELRRRRLLAGWTVAELSRRINLSGMTIHQIEKGRGRLRPSELTLAKLAAALGMPTP”, the “soluble fraction (log2)” value was at least 0.43.

For the sequence “HMDYEVPEELEEKFSENPQFKEAFDNLTPGRQHQYIYHISQAKRSQTRINRIEKYYEHILNGKGMQD”, the “soluble fraction (log2)” value worked out at 0.416.

“HMDYGTATASAILYLEKIDPENPYLLLAKDTITTNPKMSVNFALKGIIESKKGEKEENLNKALEIMSSL”: the “soluble fraction (log2)” value was 0.0949.

As to “HMDYKSNLQEMVQTTKKSVTYELVKEEGPAHDRTFTMNVIVDGIVLGTGTAKSKKEAEQEAAHQALEKKA”, the “soluble fraction (log2)” value was -0.0453.

On to “HMDYTGIPQSLLDLMKKDNIMPMQIQRAVAERNYYPVDTPISNYDPMFIEAKLVGAWDQVLNVISHLDLP”, for which the “soluble fraction (log2)” value was -1.51.

For “HMDYTPIEVKDLPQAIQDALTKNFSEYTVKSAAYQEDEDGVKIYQVTVVDEEGTEANIFFTEKGE”, the “soluble fraction (log2)” value is 0.00729.

For the sequence “HMEADERRNEILDAAETLITEKGYSKTTIIDILNQVGIAKGTFYYYFKSKEEVMDAIIERFI”, the “soluble fraction (log2)” value is -1.33.

Turning to “HMEAEGLDFAPMPGEIGKKLWQEVSKEAWAGWLKHQTMLVNENRLSFVDPAARKYLTEQTEAYFFG”, the “soluble fraction (log2)” value was -0.248.

“HMEAEMLYQVKVKITNLVIRSGAGAIYPIVKRYASGVLPIYEEKNGYGKIAVGQWISLSPEFVERVD”: the “soluble fraction (log2)” value was -0.0106.

Consider “HMEAEPRLLDLPPGTRAGRLDKVLAQLLPEHSRSRLQGWIERGGVLVNGKEASVRQVVGPGDQLTVWEEAA”, for which the “soluble fraction (log2)” value was determined as 0.0341.

Consider “HMEAEQLEAIRSALQQLSDMNRTVFNLHVVDGYKHEEIAAMLNITTGTSKAHLHRAKKRLRELID”, for which the “soluble fraction (log2)” value is -0.745.

With “HMEAEVIKTASDMADRNGLHNVSLKAIAENLGIRTPSLYNHIGSLDELLREIAHSGMRTMNE”, the “soluble fraction (log2)” value is -0.247.

For “HMEAFAEAVASMLRKLQPEFAIDLVGPRELLVNGRRLDLENLYRMVNHEPVRGQEIVEHYLDQLFAG”, the “soluble fraction (log2)” value was -0.665.

“HMEAGLRMPEQLTAFSALALLQKVRDSGPLTDAQKEQLDADVLRIEASHFGKADREALELEEILKQWLSRV”: the “soluble fraction (log2)” value is -0.889.

“HMEAKSSTKALLDVVLGRNGVSTANVAKSLNISVQNASTRLKKLSSEGVIMRSEVSSPTGGIEFIYS”: the “soluble fraction (log2)” value was 0.22.

Regarding “HMEAKTSNPDYHARLGLTEGEGNDSALGVSVKAAEGGFGLLFGNKVGSDQLVRFANEDQVWLVNRALS”, the “soluble fraction (log2)” value is 0.0693.

As for “HMEALNIEQKKVEIINVLLEKGKGKGRLSYKEISDQIDTVELDKDQMDELYETLMTNGIEIV”, the “soluble fraction (log2)” value was -1.43.

Consider “HMEALPSNLRRLRLEAQLTLDRLGALSGVSRAMISKIERGASVPTATMLGKLAAALQVSLSQLL”, for which the “soluble fraction (log2)” value was -0.263.
